Laboratory results: the nanobody polyreactivity screen of Harvey et al. (2022)

assay: yeast display, Sf9 membrane polyspecificity reagent, FACS + sequencing; frameworks hold sequencing errors
Method in brief: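 Galactose induction of a Saccharomyces cerevisiae BJ5465 synthetic nanobody display library ran 36–48 hours. The cells were then stained for 1 hour at 4 °C with 10% biotinylated, detergent-solubilized Sf9 membrane reagent, pulled down on streptavidin microbeads and FACS-sorted into low and high (top ~1%) gates on expression and reagent-binding fluorescence. Labels for polyreactivity follow the gate of origin.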

Sequence	polyreactivity (PSR sort gate)
QVQLVESGGGLVQAGGSLRLSCAASGNTFDGNAMGWYRQAPGQERELVAAINYSGASTSYADSVKGRFTISRDNAKNTVYLQMNSLKREDTAVYYCAADYPPLYRKYDYWGHGTQVTVSS	low polyreactivity
QVQLVDSGGGLVQAGGSLRLSCAASGFIFGKYAMGWYRPAPGKEREFVAAITGNGGSTYYADSVKGRFTISRDNAKNTVYLQMNSLKPEDTAVYYCAADASWELFAWAHYDYWGQGTQVTVSS	low polyreactivity
QVQLVESVGGLVQAGGSLRLSCAASGFTFWIYAMGWYRQAPGKERELVAVISRGGSTYYADSVKGRFTISRDNAKNTVYLQMNSLKPEDTAVYYCAAYWRSRNRFYWGQGTQVTVSS	high polyreactivity
QVQLVESGGGLVQAGGSLRLSCAASGRIFTSYAMGWYRQAPGKEREFVAAITRRGGSTYYADSVKGRFTISRDNAKNTVYLQMKSLKQEDTAVYYCAADIYSVPYPSWARYDYWGQGTQVTVSS	high polyreactivity
QVQLVESGGGLVQAGGSLRLSCAASGSTFWRYAMGWYRQAPGKERELVAGITWNGGSTYYADSVKGRFTISRDNAKNTVYLQMNSLKPEDTAVYYCAARRTWGYIYRLGYGMDYWGQGTQVTVSS	high polyreactivity
QVQLVESGGGLVQAGGSLRLSCAASGYTFVYYAMGWYRQAPGKERELVAAITGNSGSTYADSVKGRFTISRDNAKNTVYLQMNSLNPEDTAVYYCAADQTGQDWYYVEFDYWGQGTQVTVSS	low polyreactivity
QVQLVESGGGLVQAGGSLRLSCAASGLIFYRNAMGWYRQAPGKERELVAAIRFSTGSTYYADSVKGRFTISRDNAKKTVYLQMNSLKPEDTAVYYCAADRRYYWYNYWGQGTQVTVSS	high polyreactivity
QVQLVESGGGLVQAGGSLRLSCAASGFIFYGYAKGWYRQAPGKERELVAGISTGGSKNYADSVKGRFTISRDNAKNTVYVQMNSLKPEDTAVDYCAVVDVEEHVGHWGQGTQVTVSS	low polyreactivity
QVHLVESGGGLVQAGGSLRLSCPASGRIFYYYTMGCYRQAPGKERELVAAITSGGSTYYADSVKGRFTISRDNAKNTVYLQMYSLKQEDTAVYYCIAEFDEKYDYWGQGTQVTVSS	low polyreactivity
QVQLVESGGGLVQAGGSLRLSCAASGSIFGFNAMGWYRQARGKERELVAAINNGGSTNYADSVKGRFTISRDNAKNTVYLQMNSLKPEDTAVYYCAARLNYIRRGYWGQGTQVTVSS	high polyreactivity
QVQLVESGGGLVQAGGSLRLSCAASGFTFRRYAMGWYRQAPGKERELVATITKGGGSTYYADSVKGRFTISRDNAKNTVYLQMNSLKPEDTAVYYCAKRYPYGLTVGASDYWGQCTQVTVSS	high polyreactivity
QVQLVDSGGGLVQAGGSLRLSCAASGIIFPVYAMGWYRQAPGKERELVAAITYSGDRTYYADSVKGRFTISRDNAKNTVYLQMNSLKPEDSAVYYCNARFGVWPYFYNEDDYWGQGTQVTVSS	low polyreactivity
QVQLVESGGGLVQAGGSLRLSCAASGSIFYDNAMGWYRQAPGKERELVATIRGGGNTYYADSVKGRFTISRDNAKNTVYLQMNSLKPEDTAVYYCAKQSDFPGVPLVYGVYGYDYWGQGTQVTVSS	low polyreactivity
QVQLVESGGGLVQAGGSLRLSCAASGSIFNYNAMGWYRQAPGKERELVAGITTSGGSTYYADSVKGRFTISRDNAKKTVYLQMNSLKPEDTAVYYCAAYDYISSTYFLDDYWGQGTQVTVSS	low polyreactivity
QVQLVESGGGLVQAGGSLRLSCAASGFIFPGYAMGWYRQAPGKERELVAAISVSGGSTFYADSVKGRFTISRDNAKYTVYLQMNSLKPEDTAVYYCNARGYTWSYPLGIRVRYDYWGQGTQVTVSS	high polyreactivity
QVQLEESGGGLVQAGGSLRLSCAASGSTLEYNVMGWYRQAPGKERELVAAFSRSGGITYYADSVKGRFTISRDNAKNTVYLQMNRLKPEDTAVYYCNRLYTRVREYESWGQGTQVTVSS	high polyreactivity
QVQLVESGGGLVQAGGSLRLSCAASGIIFDTNAMGWYRQAPGKERELVASISKRGGSTYYADSVKGRFTISRDNAKNTVYLQMNSLKPEDTAVYYCNALRRRQYHDDYWGQGTQVTVSS	high polyreactivity
QVQLVESGGGLVQAGGSLRLSCAASGSIFSYYAMGWYRQAPGKEREFVAAITKSGGSTYYADSVKGRFTISRDNAKNTVYLQMNSLKPEDTAVYYCAVRYKLYYYRYDYWGQGTQVTVSS	low polyreactivity
QVQLVESGGGLVQAGGSLRLSCAATGIIIDSNAMGWYRQAPGKERELVAAITSGGSTKYADSVKGRFTISRDNAKNTVYLQMNSLKPEDTAVYYCAAGGSYYRDDYWGQGTQVTVSS	low polyreactivity
QVQLVESGGGLVQAGGSLRLSCAASGITFQSNAMGWYRQAPGKERELVAAIDWRGDSTYYADSVKGRFTISRDNAKNTVYLQMNSLKPEDTAVYYCNADISGSGQWDGYDYWGQGTQVTVSS	low polyreactivity
QVQLVESGGGLVQAGGSLRLSCAASGSTSRYYDMGWYRQAPGKERELVATITISGITNYADSLKGRFTISRDNAKNTVYLQMNSLKPEDTAVYYCATVGPWPGEYDYWGQGTQVTVSS	low polyreactivity
QVQLVESGGGLVQAGGSLTLICAASGRTLYLNAMGWYRQAPRKERELVAISSGGSTYYADSVKGRFTISRDNAKNTVYLQMNSLKPEVTAVYYCNADEHYHFCYVFWYAYDYWGQGTQVTVSS	low polyreactivity

Sequence	polyreactivity (PSR sort gate)
KVQLGESGGGLVQAGGSLRLSCAASGFIFGYNGMGWYRQAPGKERELVAGITYSDGSTYYADSVKGRFTISRDNAKNTVYLQMNSLKPEDTAVYYCAVDVIYYWAEDYDYWGQGTQVTVSS	low polyreactivity
QVQLVESGGGLVQAGGSLRLSCAASGSIFGTYAMGWYRQAPGKEREFVAAISWSDGSTYYADSVKGRFTISRDNAKNTVYLQMNSLIPEDTAVYYCAVRRVGSIYIDRYIYVVADYDYWGQGTQVTVSS	low polyreactivity
QVQLVESGGGLDQAGGSLRLSCAASGSIFPPYAMGWYSQAPGKERELVATITIRGGSTYYADSVKGRFTISRDNAKNTVYLQMNSLKPEDTAVYYCAADYTKYYRRYYYWGQGTQVTVSS	high polyreactivity
QVQLVESGGGLVQAGGSLRLSCAASGRIFVVYAMGWYRQAPGKERELVAAITSSGNTNYADSVKGRFTISRDNAKNTVYLQMNSLKPEDTAVYYCAATRDYSSDYWGQGTEVTVSS	low polyreactivity
QVQLVESGGGLVQAGGSLRLSCAASGFIFRYYAMGWYRQAPGKERELVAAISSGGRTSYADSVKGRFTISRDNAKNTVYLQMNSLKPEDTAVYYCAADRWRGLFYYGNDYWGQGTQVTVSS	high polyreactivity
QVQLVESGGGLVQAGGSLRLSCAASGRIRFYARGWYRQAPGKEREFVASITRSGGSTYYADSVKGRFTISRDNAKYTVYLQMNSLKPEDTAVYYCAADDYFHDDYWGQGTQVTVSS	high polyreactivity
QVQIVESGGGLVQAGGILRLSCAASGITFTSYAMGWYRQAPGKEREFVAAISWSGDRTYYADSVKGRFTISRDNAKNTVYLQMICLKPEETAVYYCNAYIYFSAYDPDYYWGQGTQVTVSS	high polyreactivity
QVQLVESGGGVVQAGGSLRLSCAASGSTFGHNAMGWYRQAPGKERELVAVITSGGSTYYADSVKGRFTISRDNAKNTVYLQMNSLKPEDTAVYFCATDGGNSATVRYVASDYWGQGTQVTVSS	high polyreactivity
HVQLVESGGGLVQAGGSLRLSCAASGSTIGRYAIGWYRQAPGEERELVAAISYSGGSTYYADSVKGRFTISRDNAKNTVYIQMNSLKPEDTAAYYCAKGLSTGRAYRGYDYWGQGTQVTVSS	high polyreactivity
QVHLVESGVGLVQAGGSRRLSCAASGVIFTGYAMGRYRHAPGKDRELVAAISSSGTSTYYADSVKGRFTISRDNAKYTVYLQINSLKPEDTAVYYCARVSKRTWSGYYFLGQGTQVTVSS	high polyreactivity
QVQLVESGGGLVQAGGSLRLSCASSGSIFQYYVMGWYRPAPGKERELVAAMRRSGTTYYADSVKGRFTISRDNAKHTLDLQMNSLKPEDTAVYYCNKVRGQEPSNYDYWGQGTQVTVSS	low polyreactivity
QVQLVESGGGLVQAGGSLRLSCAASGRTFTPYDMGWYRQAPGKERELVAAITWRGGSTYYADSVKGRFTISRDNAKNTVYLQMNSLKPEDTAVYYCAKDRWTYAFRVGYGYWGQGTQVTVSS	high polyreactivity
QDQLQESGGGLVQAGGSLRLSCAASGRIIYGYAMGWYRQAPGKERELVAAITATYYADSVKGRFTISRDNAKNTVYLQMNSLKPEDTAVYYCNAYLSPKQPLSPPDPTFEGGYWGQGTQVTVSS	low polyreactivity
QVHLVESGGGLVKAGGSLRLSCAASGLTFSYYARGWSRQPPGKEMELVAANSWSGGSTYYADSVKGRFTISRDNAKNTVYLQMNSLKPEDTAVYDCAVRPSDGVIFSKGYDHWGQGTQVTVSS	low polyreactivity
QVQLVESGGGLLQAGGSLRLSCADSGRTFCPNVMGCYRQAPGKERELVAAITWGDASTYYADSVKGRFTISRDNAKNTVYLQMNCLKPEDTAVYYCGAKSSTRGDYWGQGTQVTVSS	low polyreactivity
QVQIVESGGGLVQAGGSLRLSCAASGRILEGYAMGWYRQAPGKERELVAAISFSTTTTYYADSVKGRFTISRDNAKNTVYLQMNSLKPEDTAVYYCAADSQQSDYDYWGQGTQVTVSS	high polyreactivity
QVQLVESGGGLVQAGGSLRLSCAASGSIFGFNAMGWYRQAPGKEREFVAAISKSGGSTYYADSVKGRFTISCDNAKNTVYLQMNSLKPEDTAVYYCNAKSRHYEPYDYWGQGTQVTVSS	high polyreactivity
QVQLVESGGGLVQAGGSLRLSCAASGSIFHKNAMGWYRPAPGNERELVATITSDGSTNYADSVKGRFTISRDNEKNTVYLQMNSLKPEDTAVYDCAAYSQVGGYDYWGQGTQVTVSS	low polyreactivity
QVHLVESGGGLVQAGGSLRLSCAASGFTSQYYAMGWYRQAPGKERELVAAITLRDGSTYYADSVKGRFTISRDNAKNTVYLQMNSLKPEDTAVYYCNTDATSDPYGFGYWGQGTQVTVSS	low polyreactivity
QVHLVESGGGLVQAGGSLRLSCAPSGRTFFINAMGWYRQAPGKERELVAAIRVGAGSTYYADSVKGRFTISRDNAKNTVYLQMNSLKPEDTAVYYCAAKRVGSREYYWGQGTQVTVSS	high polyreactivity
QVQLVESGGGLVQAGVSLPLSCAASGIIFFSYAMGWYRPAPGKERELVAAITSRGTSTYYADSVKGRFTISRDNAKNTVYLQLISLKPEDTAVYYCAARWLWRASKVDYWGQGTQVTLSS	high polyreactivity
